# Results taken from patent US7186551B1, “3′-phosphoadenosine -5′-phosphosulfate synthetase 2 (PAPSS2) sequence variants” (Mayo Foundation for Medical Education and Research, priority 2001, dated 2007).
# Test system: PAPSS2
# Test: PAPSS2 enzyme activity, coupled radiochemical assay (PAPS generation then SULT1E1-catalyzed sulfation of [3H]estradiol) with COS-1 expressed recombinant allozymes
# Assay type: biochemical, human
# Details: His-tagged recombinant allozyme, loxP-modified p91023(b) vector, COS-1 cells, corrected for transfection efficiency
# Source text: Variant alleles of the four non-synonymous PAPSS2 cSNPs observed during the resequencing experiments were created using the QuickChange Site-Directed Mutagenesis Kit (Stratagene, La Jolla, Calif.), with wild type PAPSS2 cDNA in pUni as template. The sequence of the pUni insert was confirmed by completely sequencing both strands before recombination with the loxP-modified p91023(b) acceptor vector. pUni donor vectors that contained wild type and variant PAPSS2 cDNAs, as well as empty pUni, then were combined with the loxP-modified p91023(b) acceptor vector to generate the final expression constructs. In all cases, the fusion junctions of resultant expression constructs were sequenced to confirm that the construct was a dimer consisting of only a single donor and a single acceptor vector. These expression constructs were used to transfect COS-1 cells using TransFast™ reagent (Promega) with a 1:1 charge ratio. pSV-β-galactosidase (Promega) was co-transfected with each construct as an internal control to correct for transfection efficiency. Transfected COS-1 cells were harvested after 48 hours and were homogenized with a Polytron homogenizer (Brinkmann Instruments, Westbury, N.Y.) in 25 mM potassium phosphate buffer, pH 7.8, containing 1 mM dithiothreitol (DTT) and 1 mM EDTA. The homogenates were centrifuged at 15,000 g for 15 minutes, and the resultant supernatant preparations were used to perform enzyme assays, substrate kinetic studies and Western blot analyses. In some cases, aliquots of these cytosol preparations were stored at −80° C. prior to assay.
# PAPSS2 Enzyme Activity: PAPSS2 activity was measured with a coupled radiochemical assay. See Xu et al., 2001, supra. Briefly, PAPS is generated from ATP and Na2SO4 in a PAPSS2-catalyzed reaction. The generated PAPS is then used as a substrate for the SULT1E1-catalyzed sulfate conjugation of [2,4,6,7-^3H]estradiol, a radioactively labeled sulfate acceptor substrate. The cell homogenate preparations of recombinant PAPSS2 allozymes described above were used for the activity studies without any further purification. The protein concentration of each recombinant protein preparation was determined by the dye-binding method of Bradford with bovine serum albumin (BSA) as a standard.
# PAPS synthesis was catalyzed by recombinant wild-type PAPSS2 or PAPSS2 allozymes (present in the cell homogenate preparations described above) in the presence of 1 mM ATP, 16 mM Na2SO4, 1 mM MgCl2, and 2 mM DTT in 60 mM glycine-NaOH buffer, pH 8.6. Blank samples included the same quantity of COS-1 cytosol protein from cells that had been transfected with empty expression vector to make it possible to correct for endogenous activity. Reaction mixtures were incubated at 37° C. for 20 minutes, and then terminated by heating at 100° C. for 1 minute. An aliquot from this PAPS-generating reaction was then added to a second, coupled reaction containing recombinant human SULT1E1 isolated from COS-1 cells transfected with a SULT1E1 expression construct (see Aksoy et al., Biochem. Biophys. Res. Commun., 200:1621–1629 (1994)). The coupled reaction also included 27 nM [2,4,6,7-^3H]estradiol, 8 mM DTT and 1.25 mM MgCl2 in 10 mM potassium phosphate buffer, pH 6.5. The second, SULT1E1-catalyzed reactions were incubated at 37° C. for 20 minutes, and then terminated by the addition of KOH, followed by organic solvent extraction performed with chloroform. Radioactivity of the sulfate conjugated [2,4,6,7-^3H]estradiol in the aqueous phase after organic solvent extraction was then measured in a liquid scintillation counter. PAPSS activities of recombinant PAPSS2 allozymes were compared after correction for transfection efficiency by measuring the activity of cotransfected P-galactosidase. β-Galactosidase activity in the COS-1 cell preparations was measured with the β-Galactosidase Assay System (Promega) as described by the manufacturer. […]
molecule,measurement,value
"wild type: reference human PAPSS2 polypeptide (SEQ ID NO:9, GenBank AF091242), recombinantly expressed in COS-1 cells (protein, listed as Homo sapiens) MSGIKKQKTENQQKSTNVVYQAHHVSRNKRGQVVGTRGGFRGCTVWLTGLSGAGKTTISFALEEYLVSHAIPCYSLDGDNVRHGLNRNLGFSPGDREENIRRIAEVAKLFADAGLVCITSFISPFAKDRENARKIHESAGLPFFEIFVDAPLNICESRDVKGLYKRARAGEIKGFTGIDSDYEKPETPERVLKTNLSTVSDCVHQVVELLQEQNIVPYTIIKDIHELFVPENKLDHVRAEAETLPSLSITKLDLQWVQVLSEGWATPLKGFMREKEYLQVMHFDTLLDDGVINMSIPIVLPVSAEDKTRLEGCSKFVLAHGGRRVAILRDAEFYEHRKEERCSRVWGTTCTKHPHIKMVMESGDWLVGGDLQVLEKIRWNDGLDQYRLTPLELKQKCKEMNADAVFAFQLRNPVHNGHALLMQDTCRRLLERGYKHPVLLLHPLGGWTKDDDVPLDWRMKQHAAVLEEGVLDPKSTIVAIFPSPMLYAGPTEVQWHCRSRMIAGANFYIVGRDPAGMPHPETKKDLYEPTHGGKVLSMAPGLTSVEIIPFRVAAYNKAKKAMDFYDPARHNEFDFISGTRMRKLAREGENPPDGFMAPKAWKVLTDYYRSLEKN",% WT activity,100%
